Measured values published in patent publication US20160051654A1 (IMMATICS BIOTECHNOLOGIES, published 2016).
Ends that are not written are not given here.

B1: TOP-001 (peptide)
peptide: KIFDEILVNA
notes: also called IMA-TOP-001
B2: TGFBI-001 (peptide)
peptide: ALFVRLLALA
notes: also called IMA-TGFBI-001
B3: DCA-001 (peptide)
peptide: KLGDFGLATVV
B4: PCN-001 (peptide)
peptide: KLMDLDVEQL
notes: also called IMA-PCN-001
B5: JAK-001 (peptide)
peptide: KLTDIQIEL
B6: C20-001 (peptide)
peptide: ALSNLEVTL
modifications: also: acetate salt
notes: also called IMA-C20-001
B7: NOX-001 (peptide)
peptide: ILAPVILYI
notes: also called IMA-NOX-001

Columns and labels:
[1] = target: T1, HLA-A*0201 (recombinant HLA-A*0201 heavy chain with human beta-2 microglobulin) (human); experiment: EpI ELISA: refolding of recombinant HLA-A*0201 with b2m and graded peptide
[2] = target: T1, HLA-A*0201 (recombinant HLA-A*0201 …); experiment: ELISA-based refolding assay: recombinant HLA-A*0201, b2m and graded peptide

| Binder | binding result [1] | also measured |
| --- | --- | --- |
| B1 | binds | – |
| B2 | – | fold lower KD compared with the majority of peptides [1]: 100 fold |
| B3 | – | binding result [2]: binds |
| B4 | binds | – |
| B5 | – | binding result [2]: binds |
| B6 | binds | – |
| B7 | binds | – |
